Consider one molecule from patent US20030031664A1 (GENERAL HOSPITAL, published 2003).

The target in experiment [1] is ferret α2-antiplasmin (ferret). In words: cell-based or functional assay.
The target in experiment [2] is T1, human alpha-2-antiplasmin (human, UniProt P08697 40-491, limits assumed, 125I-labelled in the radioimmunoassays; biotinylated in the competition assay of Example 5).
T1 sequence (looked up): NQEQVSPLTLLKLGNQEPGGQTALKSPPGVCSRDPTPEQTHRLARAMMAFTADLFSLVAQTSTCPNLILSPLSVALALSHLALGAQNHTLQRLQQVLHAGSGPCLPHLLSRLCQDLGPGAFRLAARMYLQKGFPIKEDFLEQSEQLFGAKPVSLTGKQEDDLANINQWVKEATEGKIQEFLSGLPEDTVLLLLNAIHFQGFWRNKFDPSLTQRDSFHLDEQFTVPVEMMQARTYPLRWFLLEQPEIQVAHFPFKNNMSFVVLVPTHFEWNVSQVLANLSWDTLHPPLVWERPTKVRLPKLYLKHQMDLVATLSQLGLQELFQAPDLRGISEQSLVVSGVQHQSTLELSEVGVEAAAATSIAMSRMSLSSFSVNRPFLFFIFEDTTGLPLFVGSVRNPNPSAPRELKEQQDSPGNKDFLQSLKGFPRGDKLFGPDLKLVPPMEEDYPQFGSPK
As to the kind of experiment: cell-based or functional assay.

B1: monoclonal antibody 77A3 (antibody, V domains shown)
VH: QIQLVQSGPELKKPGETVKISCKASGYTFTNYGMNWVKQAPGKGLKWMGWINTKSGEPTYAEEFKGRFAFSLETSASTANLQIKNLKNEDTATYFCARWVPGTYAMDYWGQGTSVTVSS
VL: DIQMTQSPASLSASVGETVTITCRASGNIHNYLAWYQQKQGKSPQLLVYNAKTLADGVPSRFSGSGSGTQFSLKINSLQPEDFGSHYCQHFWTTPWTFGGGTKLEIK
In turn, B1 registered an inhibition of ferret α2AP activity in plasma, ex vivo, 1 and 4 hours after 22.5 mg/kg i.v. (chromogenic plasmin inhibition assay) in experiment [1] of 75%. In addition, in experiment [2], the “increase in potency of lysis by urokinase (dose response with and without MAb)” value is roughly 100 fold.
